Holding throughout (test): ELISA, antigen captured by anti-His antibody on plate, HRP anti-IgG Fc detection
Test [1] concerns the target Human VEGF121/VEGF-A protein (human VEGF 121 isoform) with 6-His tag (human) (UniProt P15692).
For test [2] the target is unchanged. The source holds these as a separate data set.
The target is the same in test [3]. This is another data set of the same source.
Test [4] shares this target. The source holds these as a separate data set.

For one substance, EC50 results are on record in US20200325208A1.

Like-named read-outs stand apart in the source and are kept apart here.

Chain of Aflibercept (VEGFR-Fc) (Fc fusion) (chain): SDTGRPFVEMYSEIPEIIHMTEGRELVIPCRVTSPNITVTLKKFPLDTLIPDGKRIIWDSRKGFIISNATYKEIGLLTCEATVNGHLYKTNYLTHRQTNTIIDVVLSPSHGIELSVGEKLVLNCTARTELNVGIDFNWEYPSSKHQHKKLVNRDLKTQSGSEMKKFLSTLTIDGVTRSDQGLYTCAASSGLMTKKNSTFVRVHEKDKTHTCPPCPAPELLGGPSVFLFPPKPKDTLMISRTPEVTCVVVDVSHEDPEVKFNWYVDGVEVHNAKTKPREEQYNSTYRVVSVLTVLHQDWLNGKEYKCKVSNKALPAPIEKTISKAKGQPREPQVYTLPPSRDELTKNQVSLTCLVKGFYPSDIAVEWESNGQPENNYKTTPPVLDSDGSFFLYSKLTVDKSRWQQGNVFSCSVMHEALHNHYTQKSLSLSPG
Chain of Human VEGF121/VEGF-A protein (human VEGF 121 isoform) with 6-His tag (human) (P15692 other isoform, or with tags, fused parts or gaps limits assumed): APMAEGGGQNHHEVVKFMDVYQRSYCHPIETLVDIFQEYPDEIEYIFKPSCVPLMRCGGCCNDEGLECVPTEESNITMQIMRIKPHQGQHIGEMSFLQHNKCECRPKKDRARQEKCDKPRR

On to Aflibercept (VEGFR-Fc) (Fc fusion), for which the EC50 in test [1] is 12.2 nM; in test [2], 10.5 nM; in test [3], 15.3 nM; in test [4] it was 21.4 nM.
